Laboratory results reported in patent US20160346402A1 (Bayer, published 2016).

Tests used:
[1] = molecular target: T1, TPP-2614, TweakR-ECD-34-68-hIgGFc-His-D47A (human); experiment: ELISA: IgG coated at 1 µg/ml; 8-fold diluted HEK293 supernatant with the TWEAKR(34-68)-Fc-His mutein added; anti-HIS-HRP, Amplex Red; signal [Rfu]
T1 construct: also called D47A mutein
Procedure: These TWEAKR(34-68) Fc muteins were expressed in HEK293 cells. To obtain dose-reaction data, IgGs were coated at a concentration of 1 μg/ml onto a 384-well Maxisorp ELISA plate, and a serial 2-fold dilution of the supernatant comprising the TWEAKR mutein was used as soluble binding partner. Detection was carried out using anti-HIS-HRP and Amplex Red.

[2] = molecular target: T2, TPP-2202, TWEAKR-ECD-28-80-hIgGFc-His (human); experiment: ELISA: TPP-2202 (TWEAKR 28-80-Fc) coated at 1 µg/ml; biotinylated IgG at 0.08 µg/ml (open bars) and 0.3 µg/ml (solid bars; legend of FIG. 3 prints 0.03); streptavidin-HRP, Amplex Red; Y = signal [Rfu]
T2 construct: also called TWEAKR-Fc fusion protein; full-length ectodomain Fc fusion
Procedure: FIG. 3: Interaction of the TWEAKR ectodomain with antibodies and reference antibodies. […] Detection was carried out using streptavidin-HRP and Amplex Red substrate.
(§1) Detection was carried out using streptavidin-HRP and Amplex Red substrate. IgGs were biotinylated using an about 2-fold molar excess of biotin-LC-NHS (Pierce; Cat. No. 21347) according to the instructions of the manufacturer and desalted using Zeba desalting columns (Pierce; Cat. No. 89889).

[3] = molecular target: T3, TPP-2203, TWEAKR-ECD-34-68-hIgGFc-His (human); experiment: ELISA: TPP-2203 (TWEAKR 34-68-Fc) coated at 1 µg/ml; biotinylated IgG at 0.08 µg/ml (open bars) and 0.3 µg/ml (solid bars); streptavidin-HRP, Amplex Red; Y = signal [Rfu]
T3 construct: also called TWEAKR (34-68)-Fc fusion protein; N- and C-terminally truncated ectodomain
Procedure: FIG. 4: Interaction of the cysteine-rich domain of TWEAKR with antibodies according to the invention and reference antibodies. What is shown is the result of an ELISA with TWEAKR (34-68)-Fc fusion protein coating (TPP-2203, 1 μg/ml) and 0.08 μg/ml (open bars) and 0.3 μ/ml (solid bars) of biotinylated IgG as soluble binding partner. Detection was carried out using streptavidin-HRP and Amplex Red substrate.
as §1

[4] = molecular target: T4, hTNFRSF12 amino acids a28-80-T33Q-hIgG1-Fc (human); experiment: ELISA: TWEAKR-Fc construct coated at 62 ng/ml, biotinylated IgG titrated from 100 nM; token + marks IC50 of 1 to […] pM
T4 construct: TWEAKR-Fc mutein, coated on the ELISA plate; also called TPP-1986
Procedure: (§2) To obtain dose-reaction data, the different TWEAKR-Fc muteins were coated at a low concentration (62 ng/ml) onto a 384-well Maxisorb ELISA plate, and a serial 2-fold dilution of biotinylated IgG beginning with a concentration of 100 nM was used as a soluble binding partner. Detection was carried out using streptavidin-HRP and Amplex Red.
(§3) IgGs were biotinylated using an about 2-fold molar excess of biotin-LC-NHS (Pierce; Cat. No. 21347) according to the instructions of the manufacturer and desalted using Zeba desalting columns (Pierce; Cat. No. 89889).

[5] = molecular target: T5, hTNFRSF12 amino acids a28-80-S40R-hIgG1-Fc (human); experiment: as above
T5 construct: TWEAKR-Fc mutein, coated on the ELISA plate; also called TPP-1987
Procedure: as §2, §3

[6] = molecular target: T6, hTNFRSF12 amino acids a28-80-hIgG1-Fc (human); experiment: as above
T6 construct: wild-type TWEAKR-Fc (dimeric Fc fusion), coated on the ELISA plate; also called TPP-599; HUMAN-TNFRSF12Aaa28-80-hIgG1-Fc
Procedure: as §2, §3

[7] = molecular target: T7, hTNFRSF12 amino acids a28-80-H60K-hIgG1-Fc (human); experiment: as above
T7 construct: TWEAKR-Fc mutein, coated on the ELISA plate; also called TPP-1989
Procedure: as §2, §3

[8] = molecular target: T8, hTNFRSF12 amino acids a28-80-M50A-hIgG1-Fc (human); experiment: as above
T8 construct: TWEAKR-Fc mutein, coated on the ELISA plate; also called TPP-1988
Procedure: as §2, §3

[9] = molecular target: T9, hTNFRSF12 amino acids a28-80-R56P-hIgG1-Fc (human); experiment: as above
T9 construct: TWEAKR-Fc mutein, coated on the ELISA plate; also called TPP-2683
Procedure: as §2, §3

[10] = molecular target: T10, hTNFRSF12 amino acids a28-80-L65Q-hIgG1-Fc (human); experiment: as above
T10 construct: TWEAKR-Fc mutein, coated on the ELISA plate
Procedure: as §2, §3

[11] = molecular target: T11, TPP-1984, hTNFRSF12 amino acids 28-68-CT-His (human); experiment: ELISA: TPP-1984 (TWEAKR 28-68-HIS) coated at 1 µg/ml; biotinylated IgG at 0.08 µg/ml (open bars) and 0.3 µg/ml (solid bars); streptavidin-HRP, Amplex Red; Y = signal [Rfu]
T11 construct: Monomeric ectodomain with C-terminal deletion of amino acids 69 to 80; also called TTP-1984; TWEAKR (28-68)-HIS
T11 chain: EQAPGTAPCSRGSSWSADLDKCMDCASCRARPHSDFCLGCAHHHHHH
Procedure: FIG. 5: Interaction of TWEAKR (28-68) with antibodies according to the invention and reference antibodies. What is shown is the result of an ELISA with TWEAKR (28-68)-HIS coating (TTP-1984, 1 μg/ml) and 0.08 μg/ml (open bars) and 0.3 μ/ml (solid bars) of biotinylated IgG as soluble binding partner. Detection was carried out using streptavidin-HRP and Amplex Red substrate.
as §1

Measured: binding result

B1: PDL-192(TPP-1104) (antibody, human IgG1, kappa, V domains shown)
VH: QVELVESGGGLVQPGGSLRLSCAASGFTFSSYWMSWVRQAPGKGLEWVAEIRLKSDNYATHYAESVKGRFTISRDDSKNSLYLQMNSLRAEDTAVYYCTGYYADAMDYWGQGTLVTVSS
VL: DIQMTQSPSSLSASVGDRVTITCRASQSVSTSSYSYMHWYQQKPGKAPKLLIKYASNLESGVPSRFSGSGSGTDFTLTISSLQPEDFATYYCQHSWEIPYTFGGGTKVEIKR
notes: Comparative antibody; variable domains from WO2009/020933 with human IgG1 constant region added
binds: [1]

B2: P3G5(TPP-2195) (antibody, mouse IgG2a, kappa, V domains shown)
VH: QVQLQQSGPEVVRPGVSVKISCKGSGYTFTDYGIHWVKQSHAKSLEWIGVISTYNGYTNYNQKFKGKATMTVDKSSSTAYMELARLTSEDSAIYYCARAYYGNLYYAMDYWGQGTSVTVSS
VL: DIVLTQSPASLAVSLGQRATISCRANKSVSTSSYSYMHWYQQKPGQPPKLLIKYASNLESGVPARFSGSGSGTDFILNIHPVEEEDAATYYCQHSRELPFTFGSGTKLEIKR
notes: Comparative antibody; murine IgG2a
binds: [2] | [3]

B3: P3G5(TPP-2195) (antibody, mouse IgG2a, kappa, V domains shown)
VH: QVQLQQSGPEVVRPGVSVKISCKGSGYTFTDYGIHWVKQSHAKSLEWIGVISTYNGYTNYNQKFKGKATMTVDKSSSTAYMELARLTSEDSAIYYCARAYYGNLYYAMDYWGQGTSVTVSS
VL: DIVLTQSPASLAVSLGQRATISCRANKSVSTSSYSYMHWYQQKPGQPPKLLIKYASNLESGVPARFSGSGSGTDFILNIHPVEEEDAATYYCQHSRELPFTFGSGTKLEIKR
notes: murine IgG2a; variable domains from WO2009/140177 with a murine IgG2 constant region added; biotinylated IgG in the ELISA
binds: [4] | [5] | [6] | [7] | [8] | [9] | [10]

B4: P4A8(TPP-1324) (antibody, human IgG1, kappa, V domains shown)
VH: QVQLVQSGAEVKKPGASVKVSCKGSGYTFTDYGMHWVRQAPGQGLEWMGVISTYNGYTNYNQKFKGRVTMTVDKSTSTAYMELRSLRSDDTAVYYCARAYYGNLYYAMDYWGQGTLVTVSS
VL: DIVLTQSPASLAVSLGQRATISCRASKSVSTSSYSYMHWYQQKPGQPPKLLIKYASNLESGVPARFSGSGSGTDFSLNIHPMEEDDTAMYFCQHSRELPFTFGGGTKLEIKR
notes: human IgG1; variable domains from WO2009/140177 with a human IgG1 constant region added; biotinylated IgG in the ELISA
binds: [4] | [5] | [6] | [7] | [8] | [10]

B5: 136.1(TPP-2194) (antibody, mouse IgG2a, kappa, V domains shown)
VH: EVKLEESGGGLVQPGGSMKLSCVASGFTFNNYWMSWVRQSPEKGLEWLAEIRLKSDNYATHYAESVKGKFTISRDDSKSRLYLQMNNLRAENTGIYYCTGGFADYFDYWGQGTTLTVSS
VL: DIVLTQSPASLTVSLGQRATISCRASQSVSTSSYSYMQWYQQRPGQPPKLLIKYATNLDSGVPARFSGSGSGTDFTLNIHPVEEEDAATYYCQHSWEIPYTFGGGTKLEIKR
notes: as for B2
binds: [2] | [3] | [11]

B6: TPP-2090 (antibody, human IgG1, kappa, V domains shown)
VH: EVQLLESGGGLVQPGGSLRLSCAASGFTFSPYPMIWVRQAPGKGLEWVSYISPSGGSTHYADSVKGRFTISRDNSKNTLYLQMNSLRAEDTAVYYCARGGDTYFDYFDYWGQGTLVTVSS
VL: DIQMTQSPSSLSASVGDRVTITCRASQSISGYLNWYQQKPGKAPKLLIYQASSLQSGVPSRFSGSGSGTDFTLTISSLQPEDFATYYCQQSYTSPFITFGQGTKVEIKR
notes: Human IgG1; biotinylated (biotin-LC-NHS) when used as soluble partner in the ELISAs; also called anti-TWEAKR AK-1
binds: [2] | [3] | [11]

B7: TPP-2084 (antibody, V domains shown)
VH: EVQLLESGGGLVQPGGSLRLSCAASGFTFSPYPMMWVRQAPGKGLEWVSYISPSGGSTHYADSVKGRFTISRDNSKNTLYLQMNSLRAEDTAVYYCARGGDTYFDYFDYWGQGTLVTVSS
VL: not shown
notes: human IgG1
binds: [4] | [5] | [6] | [7] | [8] | [9] | [10]

B8: TPP-2090 (antibody, V domains shown)
VH: EVQLLESGGGLVQPGGSLRLSCAASGFTFSPYPMIWVRQAPGKGLEWVSYISPSGGSTHYADSVKGRFTISRDNSKNTLYLQMNSLRAEDTAVYYCARGGDTYFDYFDYWGQGTLVTVSS
VL: DIQMTQSPSSLSASVGDRVTITCRASQSISGYLNWYQQKPGKAPKLLIYQASSLQSGVPSRFSGSGSGTDFTLTISSLQPEDFATYYCQQSYTSPFITFGQGTKVEIKR
notes: human IgG1; also called anti-TWEAKR AK-1
binds: [4] | [5] | [6] | [7] | [8] | [9] | [10]

B9: TPP-2084 (antibody, human IgG1, kappa, V domains shown)
VH: EVQLLESGGGLVQPGGSLRLSCAASGFTFSPYPMMWVRQAPGKGLEWVSYISPSGGSTHYADSVKGRFTISRDNSKNTLYLQMNSLRAEDTAVYYCARGGDTYFDYFDYWGQGTLVTVSS
VL: not shown
notes: Human IgG1; biotinylated when used as soluble partner in the ELISAs
binds: [2] | [3] | [11]
